The numbers were not newly measured in PMC7252266, which cites them from elsewhere.

The target in the data set is UROD (Homo sapiens) (UniProt P06132).

By Kd is commonly meant a measure of binding affinity in units of concentration. Turning to UROD (from UniProt P06132), the dissociation constant (Kd) is 100 nM.
